From PMC3365889

Key:
[1] = biological target: T1, human synaptogyrin 1, transcript variant 1b, construct 5 (N-terminal His tag with TEV cleavage site) (human), O43759; assay: SDS-PAGE (SDS-resistant dimer); SDS-PAGE of fractions from the large-scale IMAC purification in DDM
T1 chain: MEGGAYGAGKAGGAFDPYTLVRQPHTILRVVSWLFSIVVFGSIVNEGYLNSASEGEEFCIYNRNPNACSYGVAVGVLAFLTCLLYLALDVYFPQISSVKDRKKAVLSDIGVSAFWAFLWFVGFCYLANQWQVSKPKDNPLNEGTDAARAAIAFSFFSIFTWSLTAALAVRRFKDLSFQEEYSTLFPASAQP

[2] = biological target: T1, human synaptogyrin 1, transcript …; assay: cross-linking; DDM-solubilised and purified synaptogyrin 1, 0.25 mM DSS, room temperature, quenched with 200 mM Tris at time points; SDS-PAGE and Western blot with His probe
[3] = biological target: T1, human synaptogyrin 1, transcript …; assay: cross-linking; Triton X-100-solubilised and purified synaptogyrin 1, 1 mM glutaraldehyde, room temperature, quenched with 200 mM Tris at time points; SDS-PAGE and Western blot with His probe
[4] = biological target: T1, human synaptogyrin 1, transcript …; assay: cross-linking; crude E. coli membranes, 2 mM DMS, room temperature, quenched with 200 mM Tris at time points; SDS-PAGE and Western blot with His probe

- stoichiometry N [1]: 2
- stoichiometry N [2]: > 4
- stoichiometry N [3]: > 4
- stoichiometry N [4]: > 4
B1: human synaptogyrin 1, transcript variant 1b, construct 5 (N-terminal His tag with TEV cleavage site), O43759-2 1-191 (natural protein)
chain: MEGGAYGAGKAGGAFDPYTLVRQPHTILRVVSWLFSIVVFGSIVNEGYLNSASEGEEFCIYNRNPNACSYGVAVGVLAFLTCLLYLALDVYFPQISSVKDRKKAVLSDIGVSAFWAFLWFVGFCYLANQWQVSKPKDNPLNEGTDAARAAIAFSFFSIFTWSLTAALAVRRFKDLSFQEEYSTLFPASAQP
